Where a chain is given by its changes, count along the chain named.
B1: 18H3-KIF (partially non-fucosylated human IgG1 18H3 produced in Expi-CHO cells with kifunensine) (antibody, V domains shown)
VH: EVQLVQSGAEVKKPGESLKISCKGSGYRFTSYWIGWVRQMPGKGLEWMGIIYPGDSDTRYSPSFQGQVIISADKSITTAFLQWSSLKASDTAMYYCARPFDYGGSPGYFDYWGQGTLVTVSS
VL: DIQMTQSPSTLSASVGDRVTITCRASQSIRSWLAWYQQKPGKAPKLLIYKASSLESGVPSRFSGSGSGTEFTLTISSLQPDDFATYYCQQYNTFWTFGQGTKVEIK
B2: ATX-130 Fab (Fab, V domains shown)
VH: EVQLLESGGGLVKPGGSLRLSCAASGFTFSSYSMNWVRQAPGKGLEWVSSISTSSNFIYYADSVKGRFTISRDNAKNSLYLQMNSLRAEDTAVYYCARDLGRYYYYMDVWGKGTTVTVSS
VL: DIVMTQSPSSLSASVGDRVTITCRASQSISSWLAWYQQKPGKAPKSLIYAASSLQSGVPSKFSGSGSGTDFTLTISSLQPEDVATYYCQKYNSAPFTFGPGTKVDIK
notes: Fab version
B3: ATX-130 hG1 (antibody, V domains shown)
VH: B2 VH
VL: B2 VL
notes: Human IgG1 form; also called ATX-130 human IgG1
B4: Ab.26 Fab (Fab, V domains shown)
VH: B2 VH
VL: B2 VL with V3Q
notes: Fab version
B5: Ab.27 hG1 (antibody, V domains shown)
VH: B2 VH
VL: B2 VL with Y36F
notes: Human IgG1 form; also called Ab.27 human IgG1
B6: Ab.28 hG1 (antibody, V domains shown)
VH: B2 VH
VL: B2 VL with G41E
notes: Human IgG1 form; also called Ab.28 human IgG1
B7: Ab.27 Fab (Fab, V domains shown)
VH: B2 VH
VL: B2 VL with Y36F
notes: Fab version
B8: Ab.32 Fab (Fab, V domains shown)
VH: B2 VH
VL: B2 VL with V83F
notes: Fab version
B9: Ab.29 Fab (Fab, V domains shown)
VH: B2 VH
VL: B2 VL with A43V
notes: Fab version
B10: Ab.24 hG1 (antibody, V domains shown)
VH: B2 VH with N56S
VL: B2 VL
notes: Human IgG1 form; also called Ab.24 human IgG1
B11: Ab.22 Fab (Fab, V domains shown)
VH: B2 VH with L5V
VL: B2 VL
notes: Fab version
B12: Ab.33 hG1 (antibody, V domains shown)
VH: B2 VH
VL: B2 VL with K90Q
notes: Human IgG1 form; also called Ab.33 human IgG1
B13: Ab.26 hG1 (antibody, V domains shown)
VH: B2 VH
VL: B2 VL with V3Q
notes: Human IgG1 form; also called Ab.26 human IgG1
B14: Ab.24 Fab (Fab, V domains shown)
VH: B2 VH with N56S
VL: B2 VL
notes: Fab version
B15: Ab.25 Fab (Fab, V domains shown)
VH: B2 VH with F57Y
VL: B2 VL
notes: Fab version; VH cell printed as 'SEO ID NO: 32'
B16: Ab.33 Fab (Fab, V domains shown)
VH: B2 VH
VL: B2 VL with K90Q
notes: Fab version
B17: Ab.28 Fab (Fab, V domains shown)
VH: B2 VH
VL: B2 VL with G41E
notes: Fab version
B18: Ab.34 hG1 (antibody, V domains shown)
VH: B2 VH
VL: B2 VL with A94Y
notes: Human IgG1 form; also called Ab.34 human IgG1
B19: Ab.31 Fab (Fab, V domains shown)
VH: B2 VH
VL: B2 VL with K61R
notes: Fab version
B20: Ab.32 hG1 (antibody, V domains shown)
VH: B2 VH
VL: B2 VL with V83F
notes: Human IgG1 form; also called Ab.32 human IgG1
B21: Ab.31 hG1 (antibody, V domains shown)
VH: B2 VH
VL: B2 VL with K61R
notes: Human IgG1 form; also called Ab.31 human IgG1
B22: Ab.25 hG1 (antibody, V domains shown)
VH: B2 VH with F57Y
VL: B2 VL
notes: Human IgG1 form; VH cell printed as 'SEO ID NO: 32'; also called Ab.25 human IgG1
B23: Ab.29 hG1 (antibody, V domains shown)
VH: B2 VH
VL: B2 VL with A43V
notes: Human IgG1 form; also called Ab.29 human IgG1
B24: Ab.22 hG1 (antibody, V domains shown)
VH: B2 VH with L5V
VL: B2 VL
notes: Human IgG1 form; also called Ab.22 human IgG1
B25: Ab.34 Fab (Fab, V domains shown)
VH: B2 VH
VL: B2 VL with A94Y
notes: Fab version

Key:
[1] = target: T1, human CD94 expressed on cells (human primary NK cells in PBMCs; HEK cells expressing human CD94) (human, UniProt Q13241 1-179); experiment: cell-based or functional assay
T1 sequence (looked up): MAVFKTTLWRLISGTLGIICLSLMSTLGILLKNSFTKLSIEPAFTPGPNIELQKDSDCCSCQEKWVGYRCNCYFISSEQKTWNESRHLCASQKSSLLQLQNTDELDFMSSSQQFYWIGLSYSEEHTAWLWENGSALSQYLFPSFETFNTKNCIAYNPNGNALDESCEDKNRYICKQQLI

human CD94 protein = target: T2, human CD94 protein (human, UniProt Q13241 34-179, limits assumed); experiment: OCTET BLI, Fab on human CD94 protein
T2 sequence (looked up): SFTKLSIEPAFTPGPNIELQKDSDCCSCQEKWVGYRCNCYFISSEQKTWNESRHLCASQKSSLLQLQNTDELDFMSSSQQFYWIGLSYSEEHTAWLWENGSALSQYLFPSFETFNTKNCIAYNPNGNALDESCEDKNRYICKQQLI

[2] = target: T1, human CD94 expressed on cells (human …); experiment: flow cytometry, HEK cells expressing human CD94, 2nd run
Description: (§1) Binding of the variant antibodies to HEK cells expressing human CD94 was also tested. Variants and ATX-130 antibodies were generated in human IgG1 form, and binding to HEK cells expressing human CD94 was assessed using flow cytometry. Experiments were run in duplicate, and the average EC50 of the 2 runs was calculated.

[3] = target: T1, human CD94 expressed on cells (human …); experiment: flow cytometry, HEK cells expressing human CD94, 1st run
Description: as §1

[4] = target: T1, human CD94 expressed on cells (human …); experiment: flow cytometry, HEK cells expressing human CD94, average of 2 runs
Description: as §1

Binder | koff (human CD94 protein) [s⁻¹] | EC50 [2] [pM] | EC50 [3] [pM] | EC50 [4] [pM] | also measured
B1 | – | – | – | – | IC50 of CLPD-NK leukemic cell depletion, ADCC assay with CLPD-NK patient PBMCs [1]: 0.059 µg/mL; IC50 of NK cell depletion, ADCC assay with healthy donor PBMCs [1]: 0.02 µg/mL
B2 | 0.0029 | – | – | – | –
B3 | – | 120 | 110 | 120 | –
B4 | 0.00446 | – | – | – | –
B5 | – | 170 | 260 | 220 | –
B6 | – | 110 | 110 | 110 | –
B7 | 0.00421 | – | – | – | –
B8 | 0.0031 | – | – | – | –
B9 | 0.00338 | – | – | – | –
B10 | – | 130 | 140 | 140 | –
B11 | 0.00238 | – | – | – | –
B12 | – | 130 | 250 | 190 | –
B13 | – | 140 | 140 | 140 | –
B14 | 0.00695 | – | – | – | –
B15 | 0.00387 | – | – | – | –
B16 | 0.00481 | – | – | – | –
B17 | 0.00425 | – | – | – | –
B18 | – | 130 | 160 | 150 | –
B19 | 0.00352 | – | – | – | –
B20 | – | 110 | 120 | 120 | –
B21 | – | 120 | 100 | 110 | –
B22 | – | 140 | 150 | 150 | –
B23 | – | 130 | 180 | 160 | –
B24 | – | 120 | 120 | 120 | –
B25 | 0.00576 | – | – | – | –
